Assay results as given in publication PMC11218506, “Characterization of the dual regulation by a c-di-GMP riboswitch Bc1 with a long expression platform from Bacillus thuringiensis”.

Tests used:
Zur [1] = biological target: T1, Zur (Bacillus thuringiensis BMB171, UniProt A0A0G3E7H1 1-137); experiment: EMSA; 100 uM MnCl2 per Methods; 50 mM Tris-HCl pH 7.5, 10 mM MgCl2, 1 mM DTT, 100 mM NaCl, 100 uM MnCl2; 25 C, 30 min; 6% native PAGE in 0.5x TBE; DNA stated as 50 uM; conditions: protein: recombinant; tags: C-terminal 6xHis (pET28b); chain copies: 2; label: none (YeaRed gel stain); blunt
Zur [2] = biological target: T1, Zur; experiment: EMSA; 100 uM MnCl2 (Mn2+ addition did not affect the interaction); 50 mM Tris-HCl pH 7.5, 10 mM MgCl2, 1 mM DTT, 100 mM NaCl, 100 uM MnCl2; 25 C, 30 min; 6% native PAGE in 0.5x TBE; DNA stated as 50 uM; conditions: protein: recombinant; tags: C-terminal 6xHis (pET28b); chain copies: 2; label: none (YeaRed gel stain); blunt

B1: mutant Bc1 dual terminator coding sequence (dsDNA)
DNA 1: CCAATGCTTTTACATTGGCTTTTTTTTATTCTCGAACATGCCACACCCATAAGCAGCCT
DNA 2: AGGCTGCTTATGGGTGTGGCATGTTCGAGAATAAAAAAAAGCCAATGTAAAAGCATTGG
- binding result (Zur [1]): no binding

B2: ck+ (dhbA positive control) (dsDNA)
DNA 1: TTATTTTTATAATTGATAATGATAATCATTATCAATAGATTGCGTTTTTC
DNA 2: GAAAAACGCAATCTATTGATAATGATTATCATTATCAATTATAAAAATAA
- binding result (Zur [1]): binds

B3: Bc1 dual terminator coding sequence (dsDNA)
DNA 1: CCAATGCTTTTACATTGGCTTTTTTTTATTCTCGAACATATTGAGAAACATTTTCAAAC
DNA 2: GTTTGAAAATGTTTCTCAATATGTTCGAGAATAAAAAAAAGCCAATGTAAAAGCATTGG
- binding result (Zur [2]): binds
